This note sets out measurements from patent publication US7662404B2, “Transdermal delivery system for dried particulate or lyophilized peptides and polypeptides” (TransPharma Medical Ltd., priority 2002, dated 2010).

A short description of data set [1]: Plasma sCT after SC injection or printed patch with ViaDerm in pigs (Example 10). The class given is in vivo. The following applies: for bioavailability: compared to SC. Here is the method: Pigs (males, 10-12 kg, Large white) were treated as follows:
Group 1: 1 ml of salmon calcitonin containing 16.7 μg peptide (Miacalcin, Novartis Pharma Ag, Basle, Switzerland) was injected subcutaneously (S.C) to each pig (total 3 pigs).
Group 2: Each pig underwent 2 ViaDerm applications on one site on the back (150 micro-channels per cm^2). Patches of 400 μg sCT/patch of 1.4 cm^2 were placed on the treated area (total 3 pigs).
Group 3: Each pig underwent 2 ViaDerm applications on one site on the back (150 micro-channels per cm^2). Patches of 200 μg sCT/patch of 1.4 cm^2 were placed on the treated area (total 3 pigs).
In order to determine sCT concentrations in pig plasma an ELISA assay was performed (Diagnostic Systems Laboratories, Inc. Webster, Tex., USA).

In data set [2] the test system is plasma Ca++. Briefly: In vivo bioactivity of sCT: plasma Ca++ concentrations in pigs (Example 10). Here is the method: In vivo bioactivity of sCT was evaluated by measuring plasma Ca^++ concentrations. […] Transdermal administration from the printed patches yielded a ˜20% decrease in Ca^++ concentrations, regardless of sCT dose. Thus, sCT delivered transdermally remained intact and biologically active.

Data set [3] has as its system blood glucose. Briefly: Bioactivity of insulin in diabetic rats: blood glucose after printed patches or SC (Example 6). The class given is in vivo. Here is the method: ViaDerm apparatus was used. The density of the microelectrode array used in these studies was 100 microelectrodes/cm^2. The device was applied twice on each location, so the density of the micro channels was 200/cm^2. The skin was treated with an applied voltage of 330V, frequency of 100 kHz, two bursts, 700 microsecond burst length, and no current limitation.
Male rats (300-325, Sprague Dawley, Harlan laboratories Ltd., Israel) were deprived of food and received water as libitum 48 hr prior to patch applications. Streptozotocin (55 mg/kg in citric buffer, 0.1 M, pH 4.5) was injected intraperitonally (IP) to the rats 24 hr prior to patch applications in order to induce diabetes. […] The diabetic rats were premedicated with IP injections of 10% ketamin/2% xylazine solution at a ratio of 70:30, 1 ml/kg. Anesthesia was maintained with either isofluorane or halothane gas. The abdominal skin hair was shaved carefully, and was cleaned with isopropyl alcohol. After 30 min, transepidermal water loss measurements (TEWL, Dermalab Cortex Technology, Hadsund, Denmark) were performed to check skin integrity. Skin micro-channeling was performed by the use of the ViaDerm instrument with the conditions described above. TEWL was then measured again to control the operation. The treated skin was covered with Lispro (HUMALOG®) or Regular (HUMULIN®R) 1.5 IU insulin-printed patches. SC injections of 0.4 IU served as a positive control. Blood samples were withdrawn from the tip of the rat's tail at 0, 2, 4, and 6 hr post application, and glucose level was determined.

Data set [4] can be described thus: rhGH in serum after printed patches and ViaDerm, hypophysectomized rats (Example 4). Type of data set: in vivo. The protocol:
The materials and methods applied in this example were similar to those in EXAMPLE 3 except from the following points: • a) The animals were treated with ELTROXIN™ and hydrocortisone only until 10 days before initiating the treatments. • b) The test article was a printed patch of rhGH in two doses: 0.15 mg/patch and 0.5 mg/patch. The patches were composed of a backing liner (DOW BLF2080™, The Dow Chemical Company, MI, USA) on which drops of GENOTROPIN® were evenly placed. All the patches contained 144 drops over an area 1.4×1.4 cm^2. The printed patch was attached to the skin by a fixing patch, 2 cm×2 cm with 300 μm thick (wet) glue (DURO-TAK™ 3872516; National Starch & Chemical Pty Ltd, NSW, Australia) on the backing liner. • c) The experimental setup included 2 groups of 3 rats each: • Group 1: Treated with ViaDerm+one 0.15 mg printed patch. • Group 2: Treated with ViaDerm+one 0.5 mg printed patch. Results 1. Printed Patches

The nature of data set [5]: Bioavailability of rhGH printed patches with ViaDerm in guinea pigs (Example 5). The class given is in vivo. Here is the method: (§1) ViaDerm micro-channeling apparatus was used. The density of the microelectrode array used in these studies was 100 microelectrodes/cm^2. The device was applied twice on each location, so the density of the micro channels was 200/cm^2. The skin was treated with an applied voltage of 330V, frequency of 100 kHz, two bursts, 700 microsecond burst length, and no current limitation.
(§2) Male Guinea pigs (500-800 grams, Dunkin Hartley, Harlan laboratories Ltd., Israel) and Male rats (350-400, Sprague Dawley, Harlan laboratories Ltd., Israel), were premedicated with IP injections of 10% ketamin/2% xylazine solution at a ratio of 70:30, 1 ml/kg. Anesthesia was maintained with either isofluorane or halothane gas. The abdominal skin hair was shaved carefully, and was cleaned with isopropyl alcohol. After 30 min, transepidermal water loss, measurements (TEWL, Dermalab Cortex Technology, Hadsund, Denmark) were performed to check skin integrity. Skin micro channeling was performed by the use of the ViaDerm instrument with the conditions described above. TEWL was then measured again to control the operation. The treated skin was covered with the rhGH patches and blood samples were withdrawn from a preinserted carotid cannula in guinea pig or from the rat's tail at predetermined times post application. The serum was separated by centrifugation and analyzed for rhGH by Elisa kit (DSL-10-1900, Diagnostic Systems Laboratories, Inc. Webster, Tex., USA). The transdermal delivery of rhGH was compared to that of subcutaneous hGH delivery.

Data set [6] can be described thus: Bioavailability of rhGH printed patches with ViaDerm in normal rats (Example 5). The class given is in vivo. The protocol:
as §1, §2

The conditions of data set [7]: rat, in vivo.
Description: • Animals: Rats, males, 250 gr, Sprague Dawley, hypophysectomized at Harlan USA labs. […] This fraction was spread on a hypoallergenic clear medical tape (Kendall Curity®, Emergency Medical Products Inc., USA) in doses specified below, and placed directly onto the skin as a transdermal patch. […]
The transdermal groups (1 and 2) received a treatment including: Shaving, drying, baseline Trans Epidermal Water Loss measurement (TEWL; DERMALAB® Cortex Technology, Hadsund, Denmark), two ViaDerm applications of 200 micropores/cm^2 (placebo for Group 2), second TEWL measurement and patch application. At the end of the study all animals were sacrificed by an IV overdose of sodium-pentobarbital (140 mg/kg). • ViaDerm parameters: burst length—500 μsec, starting amplitude—250 V, number of bursts—5 and applications per site—2 (200 micropores/cm^2). • Blood sampling: Blood samples (0.5 ml/rat) were withdrawn at 6 time points, t=0, 2, 4, 6, 12 and 24 hours, from the tail end of anesthetized rats (20 mg/rat ketamine, intramuscular). • Serum analysis: rhGH in the serum was detected using an Elisa kit (DSL-10-1900; Diagnostic Systems Laboratories, TX, USA) specific for rhGH. […] IGF-1 was detected according to RIA protocol (Endocrine, Vol. 16, no. 1, 1-6, October 2001). […]
In data set [8] the test system is IGF-1. Put plainly: IGF-1 in the serum of hypophysectomized rats after rhGH (Example 3). The class given is in vivo. From the text: GH is produced by the pituitary gland (hypophysis) and acts in several ways and on several targets. A distinctive role attributed to GH is the induction of IGF-1 production by liver cells (hepatocytes). As GH is the main trigger for the production of IGF-1, the activity of GH can be detected by measuring IGF-1 levels in the blood. GH levels in the blood can be directly analyzed as well.
Results 1. rhGH in the Serum

The mark [9] stands for this setting: diabetic rats, 1.5 IU insulin-printed patch on ViaDerm treated skin.
The mark [10] stands for this setting: diabetic rats, 1.5 IU insulin-printed patch on ViaDerm treated skin, from about 400 mg/dl.
Where [11] appears, read: hyperglycemic rats, transdermal.
The mark [12] stands for this setting: Group 1: ViaDerm + 0.15 mg printed patch.
[13] abbreviates: Group 2: ViaDerm + 0.5 mg printed patch.
Where [14] appears, read: Transdermal printed patch, dose 50 (mg).
The mark [15] stands for this setting: Transdermal printed patch, dose 150 (mg).
The mark [16] stands for this setting: Transdermal printed patch, dose 300 (mg).
Where [17] appears, read: Transdermal printed patch, dose 400 (mg).
Setting [18] is: Transdermal printed patch, dose 75 μg.
Where [19] appears, read: Transdermal printed patch, dose 150 μg.
Where [20] appears, read: Transdermal printed patch, dose 300 μg.
Where [21] appears, read: Transdermal printed patch, dose 450 μg.
[22] abbreviates: Group 1: ViaDerm + ~0.8 mg rhGH powder patch.
The mark [23] stands for this setting: Group 3: SC injection 150 μg/rat.

Where two headings read alike, the source gives them in different places.

With `CC(C)C[C@H](NC(=O)[C@H](CCCCN)NC(=O)CNC(=O)[C@H](CC(C)C)NC(=O)[C@@H](NC(=O)[C@@H]1CSSC[C@H](N)C(=O)N[C@@H](CO)C(=O)N[C@@H](CC(N)=O)C(=O)N[C@@H](CC(C)C)C(=O)N[C@@H](CO)C(=O)N[C@@H]([C@@H](C)O)C(=O)N1)C(C)C)C(=O)N[C@@H](CO)C(=O)N[C@@H](CCC(N)=O)C(=O)N[C@@H](CCC(=O)O)C(=O)N[C@@H](CC(C)C)C(=O)N[C@@H](Cc1c[nH]cn1)C(=O)N[C@@H](CCCCN)C(=O)N[C@@H](CC(C)C)C(=O)N[C@@H](CCC(N)=O)C(=O)N[C@H](C(=O)N[C@@H](Cc1ccc(O)cc1)C(=O)N1CCC[C@H]1C(=O)N[C@@H](CCCNC(=N)N)C(=O)N[C@H](C(=O)N[C@@H](CC(N)=O)C(=O)N[C@H](C(=O)NCC(=O)N[C@@H](CO)C(=O)NCC(=O)N[C@H](C(=O)N1CCC[C@H]1C(N)=O)[C@@H](C)O)[C@@H](C)O)[C@@H](C)O)[C@@H](C)O` [sCT], the Amount delivered in data set [1] (Printed patch 400 μg) turned out to be 31.92 µg; in data set [1] (patch 200 μg), 20.12 µg. For the same molecule, the bioavailability (commonly dose-corrected exposure relative to a reference, in per cent) was found to be 7.98% in data set [1] (Printed patch 400 μg); 10% in data set [1] (male, Large white, pig, plasma, other: transdermal printed patch on ViaDerm-treated skin, 200 ug, patch 200 μg, read-out: bioavailability); 8% in data set [1] (male, Large white, pig, plasma, other: transdermal printed patch on ViaDerm-treated skin, 400 ug, Printed patch 400 μg, read-out: bioavailability); 10.06% in data set [1] (patch 200 μg). The AUC – broadly, the area under the concentration-time curve, a measure of exposure – in data set [1] (S.C. 16.7 μg, neck) was found to be 206.377 ± 63.647 pg·min/mL. For the same molecule, the Cmax (as a rule, the highest concentration seen after dosing) in data set [1] (male, Large white, pig, plasma, other: transdermal printed patch on ViaDerm-treated skin, 200 ug, patch 200 μg, ViaDerm, back) is 2.33 ± 0.673 ng/mL; in data set [1] (male, Large white, pig, plasma, other: transdermal printed patch on ViaDerm-treated skin, 400 ug, Printed patch 400 μg, ViaDerm, back), 2.82 ± 1.74 ng/mL; in data set [1] (male, Large white, pig, plasma, sc, 16.7 ug, S.C. 16.7 μg, neck), 2.21 ± 1.12 ng/mL. In addition, the “decrease of plasma Ca++ concentrations from time 0” value in data set [2] (SC administration 16.7 μg) is reported as about 25%. Besides, the “decrease in plasma Ca++ concentrations” value in data set [2] (transdermal from printed patches, regardless of sCT dose (200 or 400 μg)) is given as about 20%.
For “HUMALOG®: human recombinant insulin Lispro, 100 IU/ml (Lilly), used in 1.5 IU printed patches”, in data set [3] (setting [9]), the “blood glucose level after 6 hr” value is “about 30 mg/dl”. Moreover, in data set [3] (setting [10]), the “blood glucose level three hours following application” value is on record as “about 70 mg/dl”.
The corresponding values for “HUMULIN®: human recombinant insulin, regular, 100 IU/ml (Lilly), used in 1.5 IU printed patches” are “about 30 mg/dl” and “about 70 mg/dl”.
For “insulin: insulin given as SC injection of 0.4 IU, positive control; product not specified”, the “blood glucose level after 6 hr” value in data set [3] (diabetic rats, SC injection 0.4 IU) is on record as “about 200 mg/dl”. The “blood glucose level three hours following administration” value in data set [3] (diabetic rats, SC injection 0.4 IU, from about 400 mg/dl) is on record as “about 70 mg/dl”. Further, in data set [3] (setting [11]), the “period of normal glucose level” value was 4 to 6 h and the “time to normal glucose level (100 mg/dl to 200 mg/dl glucose)” value is 1 to 3 h.
“rhGH: recombinant human growth hormone, 22 kDa polypeptide; GENOTROPIN (Pharmacia & Upjohn) with mannitol”: the AUC absolute value in data set [4] (setting [12]) was 1594 ng·h/mL; in data set [4] (setting [13]), 6563 ng·h/mL. In addition, the “time of peak rhGH serum level” value was found to be 4 h in data set [4] (setting [12]) and 6 h in data set [4] (setting [13]). For the same molecule, the “Bioavailability (% of SC)” value is listed as 100 % of SC in data set [5] (SC, dose 50 (mg printed; reference)); 32.4 % of SC in data set [5] (setting [14]); 33.1 % of SC in data set [5] (setting [15]); 34.3 % of SC in data set [5] (setting [16]); 28.7 % of SC in data set [5] (setting [17]); 100 % of SC in data set [6] (SC, dose 150 μg (reference)). The “Bioavailability (% of SC)” value in data set [6] (setting [18]) was 75.3 % of SC; in data set [6] (setting [19]), 76.9 % of SC; in data set [6] (setting [20]), 74.3 % of SC; in data set [6] (setting [21]) it was 60.3 % of SC. The AUC in data set [5] (SC, dose 50 (mg)) was 176 ng·h/mL; in data set [5] (setting [14]), 57 ng·h/mL; in data set [5] (setting [15]) it was 175 ng·h/mL; in data set [5] (setting [16]), 362 ng·h/mL; in data set [5] (setting [17]), 404 ng·h/mL; in data set [6] (SC, dose 150 μg), 489 ng·h/mL. The AUC in data set [6] (setting [18]) is 184 ng·h/mL; in data set [6] (setting [19]), 376 ng·h/mL; in data set [6] (setting [20]) it was 727 ng·h/mL; in data set [6] (setting [21]) it was 884 ng·h/mL. Also, the “bioavailability compared to the SC group” value in data set [7] amounted to 33.8%. For the same molecule, the “AUC normalized for 0.1 mg rhGH” value in data set [7] (sc) stood at 1128 µg·h/mL. For the same molecule, the “IGF-1 in the serum” value in data set [8] (setting [22]) was “elevation of IGF-1”; in data set [8] (Group 2: rhGH patch on intact skin) it was “low level of IGF-1”; in data set [8] (setting [23]) it was “anticipated elevation of IGF-1”. In data set [8] (setting [22]), the “time of maximal average IGF-1 concentration” value is 12 h. Also, the “time of peak IGF-1 concentration” value in data set [8] (setting [23]) came out at 12 h.
